Experimental data: the supplement of paper PMC9112550, “Optimization of the antimicrobial peptide Bac7 by deep mutational scanning” (BMC Biology, 2022)

Tested on: Escherichia coli TOP10
Experiment: shrunken log2 fold change of peptide-encoding DNA abundance (4.5 h post-induction vs induction); higher = less antimicrobial activity (less host growth inhibition)
Settings: time post-induction: 4.5 h; library: site-saturation at positions 5, 18, 19, 20
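Also: peptides expressed intracellularly from a pBAD plasmid library in pooled LB shake-flask culture, induced with 0.3% L-arabinose, DNA abundance read by NGS, three biological replicates, DESeq2 with apeglm shrinkage.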

| Sequence | shrunken log2 fold change |
| --- | --- |
| RRIRTRPPRLPRPRPRPAQAPRP | -0.0199 |
| RRIRPRPPRLPRPRPRPSTGPRP | -0.263 |
| RRIRNRPPRLPRPRPRPGYCPRP | -0.369 |
| RRIRMRPPRLPRPRPRPRPWPRP | 0.996 |
| RRIRSRPPRLPRPRPRPWASPRP | -0.114 |
| RRIRKRPPRLPRPRPRPMSDPRP | 0.364 |
| RRIRHRPPRLPRPRPRPSASPRP | -0.0379 |
| RRIRSRPPRLPRPRPRPDLFPRP | 0.256 |
| RRIRDRPPRLPRPRPRPPYRPRP | 0.0425 |
| RRIRHRPPRLPRPRPRPAHYPRP | -0.139 |
| RRIRPRPPRLPRPRPRPDTNPRP | -0.239 |
| RRIRMRPPRLPRPRPRPCMGPRP | -0.28 |
| RRIRTRPPRLPRPRPRPLNTPRP | -0.602 |
| RRIRLRPPRLPRPRPRPTKWPRP | -0.0762 |
| RRIRLRPPRLPRPRPRPFVPPRP | -0.162 |
| RRIRRRPPRLPRPRPRPSAPPRP | 0.418 |
| RRIRGRPPRLPRPRPRPYLKPRP | -0.0688 |
| RRIRGRPPRLPRPRPRPFAQPRP | 0.456 |
| RRIRQRPPRLPRPRPRPLILPRP | -0.424 |
| RRIRMRPPRLPRPRPRPQTGPRP | -0.0549 |
| RRIRYRPPRLPRPRPRPSVMPRP | -0.194 |
| RRIRLRPPRLPRPRPRPAHCPRP | 0.0914 |
| RRIRSRPPRLPRPRPRPLMIPRP | -0.764 |
| RRIRERPPRLPRPRPRPRWVPRP | -0.0454 |
| RRIRTRPPRLPRPRPRPFPKPRP | -0.112 |

| Sequence | shrunken log2 fold change |
| --- | --- |
| RRIRLRPPRLPRPRPRPMATPRP | -0.187 |
| RRIRHRPPRLPRPRPRPRIVPRP | 0.00411 |
| RRIRTRPPRLPRPRPRPNKEPRP | -0.00295 |
| RRIRRRPPRLPRPRPRPGEEPRP | 0.139 |
| RRIRMRPPRLPRPRPRPPFDPRP | 0.873 |
| RRIRLRPPRLPRPRPRPKEAPRP | -0.011 |
| RRIRERPPRLPRPRPRPRHAPRP | -0.0387 |
| RRIRTRPPRLPRPRPRPEQQPRP | 0.436 |
| RRIRERPPRLPRPRPRPRSQPRP | -0.341 |
| RRIRHRPPRLPRPRPRPSRAPRP | 0.373 |
| RRIRHRPPRLPRPRPRPYHYPRP | -0.125 |
| RRIRQRPPRLPRPRPRPDPHPRP | -0.0406 |
| RRIRLRPPRLPRPRPRPWFYPRP | -0.785 |
| RRIRSRPPRLPRPRPRPWFIPRP | -0.311 |
| RRIRVRPPRLPRPRPRPHYWPRP | -0.336 |
| RRIRCRPPRLPRPRPRPGWDPRP | 0.257 |
| RRIRNRPPRLPRPRPRPSDRPRP | -0.0382 |
| RRIRRRPPRLPRPRPRPVECPRP | -0.0238 |
| RRIRIRPPRLPRPRPRPWMPPRP | -0.131 |
| RRIRPRPPRLPRPRPRPHDTPRP | -0.272 |
| RRIRTRPPRLPRPRPRPYWPPRP | -0.424 |
| RRIRDRPPRLPRPRPRPDYSPRP | 0.0125 |
| RRIRSRPPRLPRPRPRPFEAPRP | 0.14 |
| RRIRGRPPRLPRPRPRPKDNPRP | 0.578 |
| RRIRYRPPRLPRPRPRPACQPRP | -0.142 |

| Sequence | shrunken log2 fold change |
| --- | --- |
| RRIRRRPPRLPRPRPRPWKVPRP | 0.00548 |
| RRIRARPPRLPRPRPRPQLCPRP | 0.249 |
| RRIRNRPPRLPRPRPRPWTFPRP | -0.0614 |
| RRIRIRPPRLPRPRPRPPTQPRP | 0.215 |
| RRIRRRPPRLPRPRPRPPFLPRP | 0.315 |
| RRIRPRPPRLPRPRPRPGGPPRP | 0.41 |
| RRIRFRPPRLPRPRPRPYLFPRP | 0.425 |
| RRIRGRPPRLPRPRPRPPFIPRP | 0.627 |
| RRIRTRPPRLPRPRPRPFEMPRP | -0.376 |
| RRIRVRPPRLPRPRPRPGHSPRP | -0.195 |
| RRIRNRPPRLPRPRPRPTEWPRP | 0.0839 |
| RRIRFRPPRLPRPRPRPWQIPRP | -0.0302 |
| RRIRLRPPRLPRPRPRPFDTPRP | -0.167 |
| RRIRSRPPRLPRPRPRPRIEPRP | 0.753 |
| RRIRCRPPRLPRPRPRPTHKPRP | 0.298 |
| RRIRKRPPRLPRPRPRPTKYPRP | -0.106 |
| RRIRRRPPRLPRPRPRPDGMPRP | 0.0388 |
| RRIRSRPPRLPRPRPRPRLKPRP | -0.0978 |
| RRIRMRPPRLPRPRPRPQDDPRP | -0.00208 |
| RRIRYRPPRLPRPRPRPPWVPRP | -0.209 |
| RRIRSRPPRLPRPRPRPWCCPRP | -0.544 |
| RRIRTRPPRLPRPRPRPLAEPRP | 0.107 |
| RRIRHRPPRLPRPRPRPKWAPRP | 0.279 |
| RRIRQRPPRLPRPRPRPSKWPRP | -0.351 |
| RRIRPRPPRLPRPRPRPMILPRP | -0.064 |

| Sequence | shrunken log2 fold change |
| --- | --- |
| RRIRNRPPRLPRPRPRPLEAPRP | -0.00641 |
| RRIRKRPPRLPRPRPRPGMNPRP | -0.0284 |
| RRIRVRPPRLPRPRPRPRRAPRP | 0.751 |
| RRIRARPPRLPRPRPRPNWTPRP | 0.0524 |
| RRIRDRPPRLPRPRPRPQNKPRP | -0.475 |
| RRIRPRPPRLPRPRPRPMGIPRP | 0.21 |
| RRIRGRPPRLPRPRPRPKNPPRP | 0.489 |
| RRIRERPPRLPRPRPRPIALPRP | -0.0132 |
| RRIRKRPPRLPRPRPRPPFAPRP | 0.745 |
| RRIRLRPPRLPRPRPRPVWMPRP | 0.372 |
| RRIRLRPPRLPRPRPRPFWWPRP | 0.483 |
| RRIRWRPPRLPRPRPRPCSWPRP | 0.0533 |
| RRIRLRPPRLPRPRPRPTRNPRP | 0.24 |
| RRIRRRPPRLPRPRPRPDHAPRP | 0.0467 |
| RRIRGRPPRLPRPRPRPMMIPRP | -0.0387 |
| RRIRARPPRLPRPRPRPPPIPRP | 1 |
| RRIRNRPPRLPRPRPRPWYKPRP | -0.00149 |
| RRIRMRPPRLPRPRPRPGPHPRP | 0.256 |
| RRIRRRPPRLPRPRPRPTLVPRP | 0.315 |
| RRIRERPPRLPRPRPRPCKCPRP | -0.01 |
| RRIRKRPPRLPRPRPRPCKQPRP | 0.0173 |
| RRIRGRPPRLPRPRPRPVMYPRP | 0.237 |
| RRIRSRPPRLPRPRPRPRFEPRP | 0.402 |
| RRIRKRPPRLPRPRPRPYCEPRP | -0.102 |
| RRIRIRPPRLPRPRPRPSGHPRP | -0.397 |

| Sequence | shrunken log2 fold change |
| --- | --- |
| RRIRARPPRLPRPRPRPFERPRP | -0.0075 |
| RRIRKRPPRLPRPRPRPRSSPRP | 0.263 |
| RRIRARPPRLPRPRPRPWNMPRP | -0.046 |
| RRIRCRPPRLPRPRPRPTETPRP | -0.0479 |
| RRIRYRPPRLPRPRPRPKMFPRP | -0.845 |
| RRIRIRPPRLPRPRPRPFWWPRP | 0.0783 |
| RRIRCRPPRLPRPRPRPERCPRP | 0.302 |
| RRIRRRPPRLPRPRPRPFLEPRP | 0.0277 |
| RRIRCRPPRLPRPRPRPTWMPRP | -0.18 |
| RRIRMRPPRLPRPRPRPPFSPRP | 0.239 |
| RRIRPRPPRLPRPRPRPWYCPRP | -0.111 |
| RRIRRRPPRLPRPRPRPSSKPRP | -0.145 |
| RRIRTRPPRLPRPRPRPPCHPRP | -0.164 |
| RRIRRRPPRLPRPRPRPVPFPRP | 0.0998 |
| RRIRKRPPRLPRPRPRPPQGPRP | 0.469 |
| RRIRNRPPRLPRPRPRPFPTPRP | 0.00541 |
| RRIRFRPPRLPRPRPRPVRQPRP | 0.0478 |
| RRIRPRPPRLPRPRPRPPGSPRP | 0.0805 |
| RRIRYRPPRLPRPRPRPTEPPRP | -0.131 |
| RRIRFRPPRLPRPRPRPNGAPRP | -0.105 |
| RRIRQRPPRLPRPRPRPQQMPRP | 0.156 |
| RRIRIRPPRLPRPRPRPSVRPRP | -0.238 |
| RRIRIRPPRLPRPRPRPCKMPRP | -0.0175 |
| RRIRPRPPRLPRPRPRPRQAPRP | 0.0176 |
| RRIRYRPPRLPRPRPRPKATPRP | -0.00674 |

| Sequence | shrunken log2 fold change |
| --- | --- |
| RRIRGRPPRLPRPRPRPTVDPRP | 0.836 |
| RRIRKRPPRLPRPRPRPDSWPRP | 0.0425 |
| RRIRVRPPRLPRPRPRPVLGPRP | 0.299 |
| RRIRERPPRLPRPRPRPSILPRP | -0.623 |
| RRIRVRPPRLPRPRPRPCYCPRP | -0.32 |
| RRIRMRPPRLPRPRPRPADVPRP | 0.0241 |
| RRIRHRPPRLPRPRPRPQHHPRP | -0.87 |
| RRIRLRPPRLPRPRPRPMIIPRP | -0.407 |
| RRIRSRPPRLPRPRPRPAMQPRP | -0.173 |
| RRIRMRPPRLPRPRPRPPRGPRP | 1.17 |
| RRIRFRPPRLPRPRPRPMYPPRP | -0.249 |
| RRIRIRPPRLPRPRPRPMVSPRP | -0.044 |
| RRIRRRPPRLPRPRPRPPWKPRP | 0.0487 |
| RRIRPRPPRLPRPRPRPIQWPRP | 0.0833 |
| RRIRWRPPRLPRPRPRPEHVPRP | 0.0199 |
| RRIRNRPPRLPRPRPRPLTAPRP | -0.221 |
| RRIRPRPPRLPRPRPRPHAQPRP | -0.119 |
| RRIRYRPPRLPRPRPRPVFSPRP | -0.303 |
| RRIRKRPPRLPRPRPRPLDDPRP | 0.227 |
| RRIRWRPPRLPRPRPRPSIHPRP | -0.319 |
| RRIRFRPPRLPRPRPRPLACPRP | -0.162 |
| RRIRIRPPRLPRPRPRPNIPPRP | -0.818 |
| RRIRERPPRLPRPRPRPYGEPRP | -0.0274 |
| RRIRPRPPRLPRPRPRPGQTPRP | -0.00112 |
| RRIRKRPPRLPRPRPRPVHLPRP | -0.0295 |
